The target in experiment [1] is hGPC3-C fragment (AA359-580) (human) (UniProt P51654). Kind of experiment: flow cytometry, intracellular staining of 293 cells transfected with hGPC3-C; gate set on untransfected cells. (Flow cytometry measures light scatter and fluorescence of single cells or particles in a stream.)
For experiment [2] the target is unchanged. The experiment is described as follows: flow cytometry, intracellular staining of 293T cells transfected with hGPC3-C; gate set on untransfected cells.

Chain of hGPC3-C fragment (AA359-580) (human) (P51654 359-580 limits assumed, form in doubt): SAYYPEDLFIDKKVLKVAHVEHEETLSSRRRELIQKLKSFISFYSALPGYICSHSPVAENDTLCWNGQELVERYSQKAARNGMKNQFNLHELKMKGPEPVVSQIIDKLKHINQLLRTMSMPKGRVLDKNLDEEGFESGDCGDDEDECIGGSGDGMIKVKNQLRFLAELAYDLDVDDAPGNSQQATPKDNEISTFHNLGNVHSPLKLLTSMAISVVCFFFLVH

B1: mAb 12D7 (mouse hybridoma antibody) (antibody, V domains shown)
VH: QVQLQQPGSELVRPGASVKLSCKASGYTFTSYWMHWVKQRLGQGLEWIGNIYPGSGSTNYDEKFKSKGTLTVDTSSSTAYMHLSSLTSEDSAVYYCTRGDYDWVFAYWGQGTLVTVSA
VL: DIVMTQSQKFMSTSVGDRVSVTCKASQNVGTNVAWYQQKPGQSPKALIYSASYRYSGVPDRFTGSGSGTDFTLTISNVQSEDLAEYFCQQYNSYPLTFGAGTKLELKR
In experiment [1], B1 returned a % of cells in the positive gate of 0.92%. In experiment [2], this molecule returned a % of events in gate M1 of 0.47%.

B2: mAb 6G11 (mouse hybridoma antibody) (antibody, V domains shown)
VH: QVQLQQPGSELVRPGASVKLSCKASGYTFTSCWMHWVKQRPGQGLEWIGNIYPGYGNTNYDEKFKNKATLTVDTSSSTAYMQLSGLTSEDSAVYYCTRGSYLYAMDYWGQGTSVTVSS
VL: DIQMNQSPSSLSASLGDTITITCHASQNINVWLSWYQQKPGNIPKLLIYKASNLHTGVPSRFSGSGSGTGFTLTISSLQPEDIATYYCQQGQSYPWTFGGGTKLEIKR
Molecule B2 registered a % of cells in the positive gate in experiment [1] of 0.75%. Moreover, in experiment [2], the % of events in gate M1 is 4.03%.

Source of the values: patent publication US20220288124A1.
